The values that follow come from article doi:10.1101/255976.

For one series, the target named is BRCA1 (human, UniProt P38398 1-1863). Description: EMSA. On the technique in general: Mobility shift assays separate free from complexed probe on a gel.
For another series, the target named is BRCA1;BARD1 (human;human, UniProt P38398;Q99728 1-1863;1-777, |). The series is described as follows: EMSA.

B1: 50 bp DNA:RNA hybrid X12-3 DNA/X12-4C RNA (DNA:RNA)
DNA: GACGTCATAGACGATTACATTGCTAGGACATGCTGTCTAGAGACTATCGC
RNA: GCGAUAGUCUCUAGACAGCAUGUCCUAGCAAUGUAAUCGUCUAUGACGUC
In the case of B1, the binding result with BRCA1 and with BRCA1;BARD1 was “binds” throughout.
